# Biological target: purified Drosophila E2F1 (in vitro binding assay) (Drosophila, UniProt Q27368 1-805)
# Assay: in vitro binding assay
# Chain of purified Drosophila E2F1 (in vitro binding assay) (Q27368 whole entry): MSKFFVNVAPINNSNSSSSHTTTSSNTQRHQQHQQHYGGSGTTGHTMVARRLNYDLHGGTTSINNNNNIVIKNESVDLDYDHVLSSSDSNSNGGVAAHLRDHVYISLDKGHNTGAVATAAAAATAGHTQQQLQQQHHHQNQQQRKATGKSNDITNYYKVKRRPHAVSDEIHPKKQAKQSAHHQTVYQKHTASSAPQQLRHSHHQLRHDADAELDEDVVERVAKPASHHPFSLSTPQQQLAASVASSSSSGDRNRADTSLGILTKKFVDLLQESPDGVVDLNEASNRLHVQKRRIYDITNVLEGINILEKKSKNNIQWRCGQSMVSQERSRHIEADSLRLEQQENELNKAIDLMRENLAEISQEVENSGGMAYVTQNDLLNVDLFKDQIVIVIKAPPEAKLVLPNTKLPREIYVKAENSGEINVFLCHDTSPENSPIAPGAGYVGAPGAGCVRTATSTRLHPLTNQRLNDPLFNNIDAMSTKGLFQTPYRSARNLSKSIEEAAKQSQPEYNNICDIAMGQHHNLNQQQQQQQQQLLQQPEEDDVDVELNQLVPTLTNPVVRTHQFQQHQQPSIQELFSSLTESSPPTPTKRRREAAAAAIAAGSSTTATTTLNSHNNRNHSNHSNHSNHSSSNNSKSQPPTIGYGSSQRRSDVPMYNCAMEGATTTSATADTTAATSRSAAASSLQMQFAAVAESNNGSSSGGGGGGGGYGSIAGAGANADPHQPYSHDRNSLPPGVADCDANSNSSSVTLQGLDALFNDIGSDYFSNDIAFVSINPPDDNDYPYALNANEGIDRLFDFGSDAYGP
binder,measurement,value
purified Drosophila Sd (in vitro binding assay) (natural protein) MKNITSSSTCSTGLLQLQNNLSCSELEVAEKTEQQAVGPGTIPSPWTPVNAGPPGALGSADTNGSMVDSKNLDVGDMSDDEKDLSSADAEGVWSPDIEQSFQEALSIYPPCGRRKIILSDEGKMYGRNELIARYIKLRTGKTRTRKQVSSHIQVLARRKLREIQAKIKVQFWQPGLQPSTSQDFYDYSIKPFPQPPYPAGKTSTAVSGDETGIPPSQLPWEGRAIATHKFRLLEFTAFMEIQRDEIYHRHLFVQLGGKPSFSDPLLETVDIRQIFDKFPEKSGGLKDLYEKGPQNAFYLVKCWADLNTDLTTGSETGDFYGVTSQYESNENVVLVCSTIVCSFGKQVVEKVESEYSRLENNRYVYRIQRSPMCEYMINFIQKLKNLPERYMMNSVLENFTILQVMRARETQETLLCIAYVFEVAAQNSGTTHHIYRLIKE,binding result,binds

# From article PMC5722641 (Developmental Cell, 2017)
